Changes are numbered by the printed parent chain.
B1: CD3B2035 (scFv)
scFv: QVQLVQSGAEVKKPGSSVKVSCKASGYTFTRSTMHWVKQAPGQGLEWMGYINPSSAYTNYNQKFQGRVTLTADKSTSTAYMELSSLRSEDTAVYYCASPQVHYDYNGFPYWGQGTLVTVSSGGSEGKSSGSGSESKSTGGSEIVLTQSPATLSASPGERVTLSCSASSSVSYMNWYQQKPGQAPRRWIYDSSKLASGVPARFSGSGSGRDYTLTISSLEPEDFAVYYCQQWSRNPPTFGGGTKVEIK
B2: CD3B2056 (scFv)
scFv: B1 scFv with K38R, M48I, A183S, W187L
B3: CD3B2052 (scFv)
scFv: B1 scFv with N61A, Q182T, A183S
B4: CD3B2059 (scFv)
scFv: B1 scFv with M48I, N61A, A183S, W187L
B5: CD3B2083 (scFv)
scFv: B1 scFv with K38R, N61A, A183S, W187L
B6: CD3B2060 (scFv)
scFv: B1 scFv with M48I, N61A, W187L
B7: CD3B2067 (scFv)
scFv: B1 scFv with K38R, A183S, W187L
B8: CD3B2084 (scFv)
scFv: B1 scFv with K38R, N61A, W187L
B9: CD3B2068 (scFv)
scFv: B1 scFv with K38R, W187L
B10: CD3B2057 (scFv)
scFv: B1 scFv with K38R, M48I, W187L
B11: CD3B2049 (scFv)
scFv: B1 scFv with Q182T, A183S
B12: CD3B2076 (scFv)
scFv: B1 scFv with K38R, M48I, N61A, W187L
B13: CD3B2032 (scFv)
scFv: B1 scFv with Q182T, A183S, W187L
B14: CD3B2047 (scFv)
scFv: B1 scFv with M48I, A183S, W187L
B15: CD3B2061 (scFv)
scFv: B1 scFv with M48I, N61A, Q182T
B16: CD3B2062 (scFv)
scFv: B1 scFv with M48I, N61A, Q182T, A183S, W187L
B17: CD3B2026 (scFv)
scFv: B1 scFv with M48I, Q182T
B18: CD3B2054 (scFv)
scFv: B1 scFv with N61A, W187L
B19: CD3B2029 (scFv)
scFv: B1 scFv with M48I, A183S
B20: CD3B2055 (scFv)
scFv: B1 scFv with K38R, M48I, Q182T, A183S
B21: CD3B2028 (scFv)
scFv: B1 scFv with M48I, Q182T, W187L
B22: CD3B2048 (scFv)
scFv: B1 scFv with M48I, W187L
B23: CD3B2036 (scFv)
scFv: B1 scFv with N61A, Q182T
B24: CD3B2050 (scFv)
scFv: B1 scFv with A183S, W187L
B25: CD3B2031 (scFv)
scFv: B1 scFv with Q182T
B26: CD3B2033 (scFv)
scFv: B1 scFv with Q182T, W187L
B27: CD3B2075 (scFv)
scFv: B1 scFv with K38R, M48I, N61A, A183S, W187L
B28: CD3B2027 (scFv)
scFv: B1 scFv with M48I, Q182T, A183S, W187L
B29: CD3B2074 (scFv)
scFv: B1 scFv with K38R, M48I, N61A, Q182T, A183S
B30: CD3B2066 (scFv)
scFv: B1 scFv with K38R, Q182T, A183S
B31: CD3B2053 (scFv)
scFv: B1 scFv with N61A, A183S, W187L
B32: CD3B2046 (scFv)
scFv: B1 scFv with M48I, Q182T, A183S
B33: CD3B2040 (scFv)
scFv: B1 scFv with N61A
B34: CD3B2070 (scFv)
scFv: B1 scFv with K38R, Q182T, A183S, W187L

target: T1, TRCW5 antigen (CD3δε-Fc-Avi) (biotinylated (site not stated)); assay: ELISA after heat
T1 construct: also called recombinant CD3
T1 sequence (chain, as listed by the source mutant limits assumed): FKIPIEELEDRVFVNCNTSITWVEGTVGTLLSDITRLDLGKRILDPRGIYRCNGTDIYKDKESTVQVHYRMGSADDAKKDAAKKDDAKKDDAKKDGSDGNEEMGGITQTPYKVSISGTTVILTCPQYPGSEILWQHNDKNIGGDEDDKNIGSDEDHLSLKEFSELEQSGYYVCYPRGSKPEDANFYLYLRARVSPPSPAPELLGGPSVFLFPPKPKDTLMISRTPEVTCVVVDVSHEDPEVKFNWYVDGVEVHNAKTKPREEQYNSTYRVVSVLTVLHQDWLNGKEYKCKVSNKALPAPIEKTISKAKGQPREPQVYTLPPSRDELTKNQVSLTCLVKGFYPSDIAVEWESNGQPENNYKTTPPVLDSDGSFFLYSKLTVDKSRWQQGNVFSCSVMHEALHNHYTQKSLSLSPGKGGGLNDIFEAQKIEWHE

| % Retained 55° C. [%] | % Retained 60° C. [%] | % Retained 65° C. [%] | Binder |
| --- | --- | --- | --- |
| 110 | 112 | 47 | B1 |
| 101 | 80 | 9 | B2 |
| 112 | 111 | 25 | B3 |
| 112 | 98 | 13 | B4 |
| 104 | 84 | 4 | B5 |
| 107 | 100 | 21 | B6 |
| 98 | 63 | 5 | B7 |
| 108 | 91 | 9 | B8 |
| 103 | 88 | 10 | B9 |
| 92 | 66 | 3 | B10 |
| 108 | 105 | 29 | B11 |
| 100 | 82 | 7 | B12 |
| 106 | 88 | 20 | B13 |
| 106 | 98 | 15 | B14 |
| 116 | 107 | 9 | B15 |
| 110 | 102 | 14 | B16 |
| 106 | 98 | 29 | B17 |

| % Retained 55° C. [%] | % Retained 60° C. [%] | % Retained 65° C. [%] | Binder |
| --- | --- | --- | --- |
| 106 | 100 | 23 | B18 |
| 100 | 97 | 29 | B19 |
| 102 | 96 | 11 | B20 |
| 104 | 92 | 15 | B21 |
| 105 | 95 | 22 | B22 |
| 108 | 105 | 35 | B23 |
| 108 | 102 | 41 | B24 |
| 108 | 104 | 36 | B25 |
| 100 | 84 | 11 | B26 |
| 103 | 87 | 6 | B27 |
| 104 | 93 | 9 | B28 |
| 104 | 101 | 6 | B29 |
| 109 | 109 | 11 | B30 |
| 115 | 112 | 30 | B31 |
| 111 | 113 | 30 | B32 |
| 107 | 106 | 52 | B33 |
| 107 | 82 | 6 | B34 |

target: T2, CD3 on primary human pan T cells (human, UniProt P07766 23-207); assay: flow cytometry, pan T-cells
T2 construct: on cells it stands in the TCR/CD3 complex; also called Pan T-cells (CD3-positive); endogenous CD3
T2 sequence (P07766 23-207 limits assumed): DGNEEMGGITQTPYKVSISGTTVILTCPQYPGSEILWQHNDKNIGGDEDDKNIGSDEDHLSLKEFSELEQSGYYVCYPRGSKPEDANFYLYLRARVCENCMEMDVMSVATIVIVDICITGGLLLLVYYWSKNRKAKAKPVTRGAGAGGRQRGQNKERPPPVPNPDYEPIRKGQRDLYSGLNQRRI
Procedure: ELISA assays for binding to recombinant CD3 (TRCW5, SEQ ID NO: 39) were performed as above. Cell binding was performed using primary human T cell and Jurkat cells by flow cytometry. Briefly, E. coli expressed anti CD3 ScFv supernatants, either at room temperature, or 55° C., 60° C. or 65° C. heat treated samples.
Pan T-cells (CD3-positive) and Jurkat-CD3-negative cells were prepared by staining Jurkat-CD3-negative cells with CFSE while keeping pan T-cells unstained. Jurkat-CD3-negative cell suspensions were resuspended at 20 million cells per each 50 mL conical tube. Cells were harvested by centrifugation at 400×g for 5 minutes and resuspended in DPBS followed by washing 2× in DPBS. Cells were stained with 1:25,000 dilution for a final dye concentration of 0.02 uM CFSE (2 uL of staining solution to 50 mL of cell suspension). Cells were incubated for 10 minutes at room temperature and centrifuged for 5 minutes at 400×g. After removal of supernatant, 3 mL of HI-FBS were added to the cell pellet, mixed and centrifuged for 5 min at 400×g. Supernatant was removed and cells were resuspended in BD stain buffer at 2×10\hat{ }6 cells/mL and incubated on ice or 4 C protected from light. Human pan T cells were thawed at 37 C and transferred gently into a conical tube containing 15 mL of warm or RT culture media (RPMI+10% FBS). […] Cells were harvested by centrifugation at 400×g for 5 min and resuspended in culture media (RPMI+10% HI-FBS). Pan T-cells (without staining) were prepared at 2×10\hat{ }6 cells/mL in flow staining buffer. Equal volumes of CFSE stained Jurkat-CD3-negative cells and unstained T-cells (CD3-positive) cells were mixed and plated 50 uL/well into assay plates. 50 uL/well neat bacterial supernatant samples and control sample (CD3W36 ScFv) were added to each well and plates were incubated 1 hr at 4 C or. Cells were harvested by centrifugation at 400×g for 4 min and 150 uL staining buffer were added to all wells, followed by centrifugation at 400×g for 4 min to pellet cells. To each well, 150 uL staining buffer were added followed by centrifugation at 400×g for 4 minutes to pellet cells.

| % Binding retained on T-cells, 55° C. [fraction] | % Binding retained on T-cells, 60° C. [fraction] | % Binding retained on T-cells, 65° C. [fraction] | % Binding retained on T-cells, RT [fraction] | Binder |
| --- | --- | --- | --- | --- |
| 1.06 | 1.14 | 0.455 | 1 | B1 |
| 1.06 | 1.08 | 0.329 | 1 | B19 |
| 1.12 | 1.2 | 0.543 | 1 | B25 |
| 1.07 | 1 | 0.295 | 1 | B26 |

Reference: US20250145711A1 (Janssen / Centocor, published 2025)
